From patent publication US20140322218A1 (Amgen, published 2014)
Numbering of substitutions follows the chain as printed. In names and notes the source's numbering stands.

T1: (1-43)::FLAG::ckCDH19(44-468)::huCDH19(464-772), on 293T cells (human/chicken chimera)
T1 construct: Entry holds leader (1-43), Flag tag and CDH19 part; leader left out; also called Hu EC5 (chicken backbone)
T1 chain: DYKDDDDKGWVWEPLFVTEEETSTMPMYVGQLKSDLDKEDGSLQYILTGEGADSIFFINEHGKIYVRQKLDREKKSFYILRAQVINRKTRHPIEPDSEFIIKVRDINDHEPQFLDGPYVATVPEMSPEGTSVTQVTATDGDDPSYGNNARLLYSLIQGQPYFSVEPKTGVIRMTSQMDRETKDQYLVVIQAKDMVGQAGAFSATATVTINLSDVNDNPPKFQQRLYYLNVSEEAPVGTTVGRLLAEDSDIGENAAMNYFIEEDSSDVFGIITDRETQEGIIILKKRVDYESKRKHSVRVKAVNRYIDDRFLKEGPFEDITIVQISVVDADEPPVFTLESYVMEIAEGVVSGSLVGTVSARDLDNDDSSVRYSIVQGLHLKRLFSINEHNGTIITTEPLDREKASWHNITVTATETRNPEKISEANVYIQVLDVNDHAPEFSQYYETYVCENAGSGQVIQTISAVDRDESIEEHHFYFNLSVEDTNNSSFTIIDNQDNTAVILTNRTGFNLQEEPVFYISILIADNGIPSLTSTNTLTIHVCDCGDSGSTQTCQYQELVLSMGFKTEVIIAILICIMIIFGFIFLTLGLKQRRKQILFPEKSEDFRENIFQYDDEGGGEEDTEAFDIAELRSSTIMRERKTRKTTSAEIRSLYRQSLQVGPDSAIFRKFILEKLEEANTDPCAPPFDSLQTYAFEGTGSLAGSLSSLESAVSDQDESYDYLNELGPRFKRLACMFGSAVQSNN

T2: ckCDH19(1-43)::FLAG::ckCDH19(44-141)::huCDH19(142-249)::ckCDH19(250-776), on 293T cells (human/chicken chimera)
T2 construct: Entry holds leader (1-43), Flag tag and CDH19 part; leader left out; also called Hu EC2 (chicken backbone)
T2 chain: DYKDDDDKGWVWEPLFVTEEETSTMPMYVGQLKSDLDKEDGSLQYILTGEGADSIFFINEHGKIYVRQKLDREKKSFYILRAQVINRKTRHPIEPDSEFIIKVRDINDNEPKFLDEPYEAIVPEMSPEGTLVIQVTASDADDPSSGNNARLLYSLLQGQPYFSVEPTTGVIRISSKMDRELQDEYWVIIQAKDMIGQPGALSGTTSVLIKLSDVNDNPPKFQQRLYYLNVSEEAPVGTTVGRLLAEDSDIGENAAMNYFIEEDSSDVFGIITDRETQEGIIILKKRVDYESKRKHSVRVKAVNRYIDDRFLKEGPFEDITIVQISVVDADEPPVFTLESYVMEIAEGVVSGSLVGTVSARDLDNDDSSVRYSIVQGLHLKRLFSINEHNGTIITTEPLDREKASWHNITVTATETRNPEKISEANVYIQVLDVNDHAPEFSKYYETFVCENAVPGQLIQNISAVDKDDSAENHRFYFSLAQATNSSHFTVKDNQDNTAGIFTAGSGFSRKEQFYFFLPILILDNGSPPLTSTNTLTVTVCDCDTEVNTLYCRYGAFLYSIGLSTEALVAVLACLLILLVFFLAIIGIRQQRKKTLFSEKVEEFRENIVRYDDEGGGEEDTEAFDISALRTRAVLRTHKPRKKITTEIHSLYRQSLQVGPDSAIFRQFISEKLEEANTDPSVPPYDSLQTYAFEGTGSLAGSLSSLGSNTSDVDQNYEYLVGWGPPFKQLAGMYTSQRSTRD

T3: Cyno Cadherin-19 (cynomolgus monkey (Macaca fascicularis), UniProt Q9H159 44-772 (human entry))
T3 construct: also called cyno CDH19; cynomologous CDH-19
T3 chain: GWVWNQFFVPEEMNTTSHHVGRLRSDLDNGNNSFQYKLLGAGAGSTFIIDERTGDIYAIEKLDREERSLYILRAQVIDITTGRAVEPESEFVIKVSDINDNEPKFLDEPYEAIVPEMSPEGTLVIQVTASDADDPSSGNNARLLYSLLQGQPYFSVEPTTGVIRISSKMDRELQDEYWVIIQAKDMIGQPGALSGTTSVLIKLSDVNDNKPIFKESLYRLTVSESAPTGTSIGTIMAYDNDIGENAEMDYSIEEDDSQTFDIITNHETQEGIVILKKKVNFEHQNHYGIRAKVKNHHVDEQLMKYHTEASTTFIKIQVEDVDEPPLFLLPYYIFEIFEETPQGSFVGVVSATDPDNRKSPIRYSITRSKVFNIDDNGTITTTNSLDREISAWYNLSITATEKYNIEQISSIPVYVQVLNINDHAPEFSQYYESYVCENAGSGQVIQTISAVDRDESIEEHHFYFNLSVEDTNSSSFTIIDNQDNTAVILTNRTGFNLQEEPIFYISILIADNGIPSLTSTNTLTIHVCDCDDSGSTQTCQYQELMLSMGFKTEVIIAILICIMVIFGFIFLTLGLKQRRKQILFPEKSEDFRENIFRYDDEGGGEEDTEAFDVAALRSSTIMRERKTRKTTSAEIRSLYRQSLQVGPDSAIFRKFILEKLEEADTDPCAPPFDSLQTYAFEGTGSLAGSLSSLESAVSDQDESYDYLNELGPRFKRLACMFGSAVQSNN

B1: hu anti-<huCDH19> 4B10 VH::huIgG1z / 4B10 VL::huKLC (Ab ID 13590) (antibody, V domains shown)
VH: QVQLVESGGGVVQPGRSLRLSCAASGFTFSSYDMHWVRQAPGKGLEWVAVISYDGTNEYYADSVKGRFTISRDTSKNTLYLQMNSLRAEDTAVYYCARERYFDWSFDYWGQGTLVSVSS
VL: EIVLTQSPGTLSLSPGERATLSCRASQSVSNTYLAWYHQRPGQAPRLLIYGASSRATGIPDRFSGSGSGTDFALTISSLEPEDFAVYYCQQYSNSWTFGQGTKVEIKR
B2: hu anti-<huCDH19> 25F8.1 (1-469)(F90Y) VH::huIgG1z / 25F8.1 (1-235)(K45Q,S102A,D111E) VL::huLLC-C2 (Ab ID 14096) (antibody, V domains shown)
VH: QVQLVQSGAEVKKPGASVKVSCKASGYTFTSYYIHWVRQAPGQGLEWMGIINPSGGSTRYAQKFQGRVTMTRDTSTSTVYMELSSLRSEDTAVYYCARGGIQLWLHFDYWGQGTLVTVSS
VL: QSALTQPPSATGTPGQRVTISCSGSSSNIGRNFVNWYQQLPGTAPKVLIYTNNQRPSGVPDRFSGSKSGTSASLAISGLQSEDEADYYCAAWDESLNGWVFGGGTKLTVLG
notes: Engineered variant of 25F8
B3: hu anti-<huCDH19> 26D1.1 VH::huIgG1z / 26D1.1 VL::huLLC-C2 (Ab ID 13882) (antibody, V domains shown)
VH: B2 VH with G26R, I34M, H35S, N52H, S57D, R59T, R72G, Q102K
VL: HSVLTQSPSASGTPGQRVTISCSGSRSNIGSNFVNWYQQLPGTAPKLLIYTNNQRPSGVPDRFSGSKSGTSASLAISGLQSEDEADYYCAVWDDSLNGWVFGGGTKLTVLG
B4: anti-CDH19 antibody 2G6 (Ab ID 13588) (antibody, human IgG1, lambda, V domains shown)
VH: QVQLVESGGGVVQPGRSLRLSCAASGFTFSSYGMHWVRQAPGKGLEWVAFIWYDGSNKYYADSVKDRFTISRDNSKNTLYLQMKSLRAEDTAVYYCARRAGIIGTIGYYYGMDVWGQGTTVTVSS
VL: SYELTQPPSVSVSPGQTASITCSGDRLGEKYTCWYQQRPGQSPLLVIYQDTKRPSGIPERFSGSNSGNTATLTISGTQAMDEADYYCQAWDSSTVVFGGGTKLTVLG
B5: hu anti-<huCDH19> 23A10.3 (1-474)(L92Q) VH::huIgG1z / 23A10.3 (1-231)(C42S) VL::huLLC-C2 (Ab ID 14077) (antibody, V domains shown)
VH: B4 VH with S31R, M34I, F50V, D66G, K84N, T91S, I103P, I106T
VL: B4 VL with T32V, C33S, R38K, L44I, T51N, R53W
notes: Engineered variant of 23A10
B6: hu anti-<huCDH19> 4A9 VH::huIgG1z / 4A9 VL::huLLC-C1 (Ab ID 13589) (antibody, V domains shown)
VH: QVQLQESGPGLVKPSETLSLTCTVSGGSISGYYWSWIRQPPGKGLEWFAYFSYSGSTNYNPSLKSRVTLSVDTSKNQFSLKLSSVTAADTAVYYCARNWAFHFDFWGQGTLVTVSS
VL: QSVLTQPPSVSGAPGQRVTISCTGSSSNIGTGYAVHWYQQFPGTAPKLLIYGNNNRPSGVPDRFSGSKSGTSASLAITGLQAEDEADYYCQSYDSRLSGWVFGGGTKLTVLG
notes: Recombinant fully human IgG1
B7: anti-CDH19 antibody 4A2 (Ab ID 13592) (antibody, human IgG1, kappa, V domains shown)
VH: QVQLQESGPGLVKPSQTLSLTCTVSGGSISSSGYYWSWIRQHPGKGLEWIGYIYYTGSAYYNPSLKSRVTISVDTSKNQFSLKLSSVTAADTAVYYCARDGSSGWYFQYWGQGTLVTVSS
VL: EIVLTQSPGTLSLSPGERATLSCRASRNISSSYLAWYQQKPGQAPRLLIYGPSSRATGIPDRFSGSGSGTDFTLTISRLEPEDFTVYYCQQYGSSFTFGPGTKVDIKR

Target: T1, (1-43)::FLAG::ckCDH19(44-468)::huCDH19(4 …)
Test: FACS, transfected 293T
Experimental: (§1) The following binding assay was completed in presence of 2 mM CaCl2. […] Cells were then washed one time and the amount of cell associated Alexa647-labelled Ab was quantitated by flow cytometry. The experiments included mock transfected controls.

Row | Binder | binding result
1 | B1 | no binding (tested: 5 ug/ml)
2 | B2 | no binding (tested: 5 ug/ml)
3 | B3 | no binding (tested: 5 ug/ml)
4 | B4 | no binding (tested: 5 ug/ml)
5 | B5 | no binding (tested: 5 ug/ml)
6 | B6 | no binding (tested: 5 ug/ml)
7 | B7 | no binding (tested: 5 ug/ml)

Target: T2, ckCDH19(1-43)::FLAG::ckCDH19(44-141)::hu …
Test: FACS, transfected 293T
Experimental: as §1

Row | Binder | binding result
8 | B1 | no binding (tested: 5 ug/ml)
9 | B2 | no binding (tested: 5 ug/ml)
10 | B3 | no binding (tested: 5 ug/ml)
11 | B4 | no binding (tested: 5 ug/ml)
12 | B5 | no binding (tested: 5 ug/ml)
13 | B6 | no binding (tested: 5 ug/ml)
14 | B7 | no binding (tested: 5 ug/ml)

target: T4, huCDH19(44-772), Flag-tagged, on 293T cells (human, UniProt Q9H159 44-772); test: FACS, transfected 293T;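 note: antibody binding to chimera-expressing cells with 2 mM CaCl2 present, cell-bound Alexa647-labelled antibody read by flow cytometry, mock-transfected cells serving as control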
T4 construct: Expressed with native leader (1-43) followed by a Flag tag; leader left out; also called Hu EC1-5
Experimental: as §1

Row | Binder | binding result
15 | B1 | binds
16 | B2 | binds
17 | B3 | binds
18 | B4 | binds
19 | B5 | binds
20 | B6 | binds

Target: T3, Cyno Cadherin-19
Test: FACS, recombinant cyno CDH19

Row | Binder | binding result
21 | B1 | binds
22 | B3 | binds
23 | B4 | binds
24 | B6 | binds
25 | B7 | binds

target: T5, huCDH19(44-141)::muCDH19(140-770), Flag-tagged, on 293T cells (human/mouse chimera); test: FACS, transfected 293T
T5 construct: also called Hu EC1
Text: (§2) The experiment included assaying the anti-CDH19 antibodies against mouse Cadherin19 to determine suitability for binning on these human/mouse chimeras.

Row | Binder | binding result
26 | B3 | binds
27 | B4 | binds
28 | B6 | binds

target: T6, huCDH19(44-249)::muCDH19(248-770), Flag-tagged, on 293T cells (human/mouse chimera); test: FACS, transfected 293T
T6 construct: also called Hu EC1-2; C137896
Text: as §2

Row | Binder | binding result
29 | B3 | binds
30 | B4 | binds
31 | B6 | binds
